According to the supplement of paper PMC10126150:
± gives the standard deviation of the averaged measurements.

Test system: ATP
Experiment: switch fluorescence ratio, 500 uM ATP over buffer (Cy3 cluster intensity, sum of 5 cycles each) (fold (ratio)); higher = stronger signal-on switching upon ATP binding; sequences stand for … in TCGTCGGCAGCGTCAGATGTGTATAAGAGACAGTTTTTTTTTTTTTTTTTTTTTTTTT…TC
Conditions: aptamer strand: ATP DNA aptamer (quencher-CACCTGGGGGAGTATTGCGGAGGAAGG + anchor), 100 nM annealed; ATP concentration: 500 uM
Procedure, shortened: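 Cy3-labelled switching-strand clusters on a modified Illumina MiSeq flow-cell were annealed to 100 nM quencher-labelled ATP aptamer and imaged first in selection buffer, then after 15 min with 500 uM ATP at 22 °C. NaOH stripping and re-annealing separated each of five buffer/ATP cycles, and clusters outside 100-1000 RFU were excluded. The fluorescence ratio sums target-cycle Cy3 intensity over buffer-cycle Cy3 intensity per cluster and averages it per switch-domain sequence.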
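Also: ATP exposure 15 min at 22 °C before imaging.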

Sequence | switch fluorescence ratio
TTCAGGTTTT | 0.99 ± 0.054
TTCAGTATCA | 1.06 ± 0.061
TTCAGTCGAG | 0.979 ± 0.02
TTCAGTTTCG | 1.01 ± 0.027
TTCATAAATT | 1.02 ± 0.023
TTCATAGGCA | 1 ± 0.039
TTCATAGTAC | 1.2 ± 0.22
TTCATCGGGT | 1.01 ± 0.014
TTCATGAATT | 0.9956 ± 0.0056
TTCATGATTG | 0.999 ± 0.011
TTCATGGACA | 0.99 ± 0.014
TTCATGGTGG | 1.01 ± 0.052
TTCATGTGGA | 1.017 ± 0.0047
TTCATTAGGA | 1.01 ± 0.029
TTCATTGGTG | 1.09 ± 0.035
TTCCAAAAAA | 1.1 ± 0.04
TTCCAATTAG | 0.968 ± 0.059
TTCCAGAATT | 0.993 ± 0.051
TTCCAGGTGG | 1.42 ± 0.14
TTCCAGTAAT | 1.01 ± 0.024
TTCCATTCGA | 0.992 ± 0.044
TTCCATTGTA | 1.02 ± 0.031
TTCCCACGGG | 1.64 ± 0.31

Sequence | switch fluorescence ratio
TTCCCACTAC | 2.63 ± 0.086
TTCCCACTAT | 1.023 ± 0.0078
TTCCCAGATG | 1.81 ± 0.41
TTCCCATGTT | 1 ± 0.012
TTCCCGCGTA | 1.19 ± 0.13
TTCCCGCTGT | 1.75 ± 0.023
TTCCCGTCAG | 1.022 ± 0.0017
TTCCCTTTGG | 1.01 ± 0.041
TTCCCTTTTT | 1.03 ± 0.019
TTCCGACTCT | 1.31 ± 0.014
TTCCGACTTA | 1.14 ± 0.19
TTCCGGCACT | 1.09 ± 0.029
TTCCGGGATC | 1.91 ± 0.092
TTCCGGGGCC | 0.9978 ± 0.0032
TTCCGGGGGA | 1.08 ± 0.11
TTCCGGGGTT | 1.03 ± 0.022
TTCCGGGTTT | 1.2 ± 0.31
TTCCGGTAAT | 1.23 ± 0.033
TTCCGTATGA | 1.05 ± 0.043
TTCCGTCACG | 1.08 ± 0.043
TTCCGTTGTG | 0.98 ± 0.049
TTCCTAATTG | 1.01 ± 0.012
TTCCTACAAG | 1.06 ± 0.014

Sequence | switch fluorescence ratio
TTCCTAGTCT | 1.27 ± 0.19
TTCCTTAGTC | 1.019 ± 0.0045
TTCCTTGGGT | 1.01 ± 0.017
TTCCTTGGTA | 1.04 ± 0.038
TTCCTTTCAA | 1.228 ± 0.012
TTCCTTTTTA | 1.02 ± 0.015
TTCCTTTTTT | 1.03 ± 0.065
TTCGAACACG | 0.994 ± 0.028
TTCGAACTCG | 1.011 ± 0.0043
TTCGAAGCAC | 2.74 ± 1.7
TTCGAAGTTG | 0.999 ± 0.034
TTCGAATGGT | 0.9724 ± 0.0062
TTCGAATTAG | 2.28 ± 1.7
TTCGACCGTG | 0.997 ± 0.033
TTCGAGACGG | 0.98 ± 0.025
TTCGAGAGTA | 1.05 ± 0.1
TTCGAGAGTG | 0.945 ± 0.054
TTCGAGGAGA | 1.01 ± 0.011
TTCGAGGAGG | 0.981 ± 0.017
TTCGAGTATT | 0.99 ± 0.019
TTCGAGTCTT | 0.9742 ± 0.0083
TTCGAGTTGT | 1.006 ± 0.0025
TTCGATACTT | 0.9922 ± 0.0059

Sequence | switch fluorescence ratio
TTCGATTTGG | 1.03 ± 0.0072
TTCGCGGTCT | 1.11 ± 0.13
TTCGCGTTAG | 1.23 ± 0.29
TTCGGAATTT | 0.9882 ± 0.0083
TTCGGAGGGT | 0.9899 ± 0.0088
TTCGGAGTTA | 1.09 ± 0.12
TTCGGCACGT | 1.01 ± 0.021
TTCGGCAGTG | 1.022 ± 0.0079
TTCGGCCCGA | 1.01 ± 0.039
TTCGGCCGGT | 0.998 ± 0.011
TTCGGCGGGT | 1.03 ± 0.025
TTCGGGAATT | 1.1 ± 0.11
TTCGGGAGGT | 1.05 ± 0.13
TTCGGGATAG | 1.07 ± 0.1
TTCGGGCCGG | 1.01 ± 0.033
TTCGGGCGAA | 1 ± 0.029
TTCGGGCGTC | 1.01 ± 0.039
TTCGGGCGTG | 0.994 ± 0.024
TTCGGGGGAA | 0.993 ± 0.075
TTCGGGGGAT | 1.01 ± 0.02
TTCGGGGGCT | 1.01 ± 0.071
TTCGGGGTCC | 0.99 ± 0.028
TTCGGGGTCT | 1.014 ± 0.0098

Sequence | switch fluorescence ratio
TTCGGGTAAG | 0.987 ± 0.043
TTCGGGTATG | 1.01 ± 0.013
TTCGGGTCGG | 0.991 ± 0.026
TTCGGGTGCC | 1.03 ± 0.057
TTCGGGTTGG | 1.02 ± 0.015
TTCGGGTTTA | 0.994 ± 0.055
TTCGGTCTAA | 0.979 ± 0.023
TTCGGTTAGC | 1.05 ± 0.041
TTCGGTTCGT | 0.98 ± 0.066
TTCGGTTGTA | 1.009 ± 0.0067
TTCGTACGGG | 1.03 ± 0.021
TTCGTAGTTG | 0.992 ± 0.054
TTCGTATAAG | 0.9936 ± 0.0076
TTCGTATATT | 1.02 ± 0.017
TTCGTATCGG | 0.978 ± 0.012
TTCGTCAACA | 1.03 ± 0.046
TTCGTCAGTT | 0.9992 ± 0.0073
TTCGTCTGGG | 1.03 ± 0.065
TTCGTGACTT | 1.02 ± 0.025
TTCGTGCCAG | 1.01 ± 0.043
TTCGTGCTTT | 0.995 ± 0.035
TTCGTGGTGA | 1.02 ± 0.019
TTCGTGTCAG | 0.995 ± 0.023

Sequence | switch fluorescence ratio
TTCGTTAAGC | 1.07 ± 0.1
TTCGTTATTG | 1.02 ± 0.026
TTCGTTCCAT | 0.986 ± 0.012
TTCGTTCGGG | 0.992 ± 0.041
TTCGTTCTTG | 0.9641 ± 0.0076
TTCGTTGATG | 0.985 ± 0.016
TTCGTTGGTG | 0.969 ± 0.035
TTCGTTGTAA | 0.98683 ± 0.00096
TTCGTTGTGC | 1.01 ± 0.02
TTCGTTTCGA | 0.965 ± 0.042
TTCGTTTCGG | 1.01 ± 0.037
TTCGTTTGCA | 1.38 ± 0.64
TTCTACAGTA | 1.036 ± 0.0059
TTCTACGGTC | 1.01 ± 0.03
TTCTAGGGGG | 1.02 ± 0.056
TTCTAGGTCT | 1.02 ± 0.037
TTCTAGTAA | 0.998 ± 0.021
TTCTATATTG | 0.996 ± 0.023
TTCTATGGCA | 0.984 ± 0.043
TTCTATTACC | 1.01 ± 0.032
TTCTATTTCG | 1 ± 0.019
TTCTCAGAGG | 1.01 ± 0.029
TTCTCAGCAA | 2.43 ± 0.64

Sequence | switch fluorescence ratio
TTCTCATTTT | 1.01 ± 0.029
TTCTCTATGT | 1.01 ± 0.035
TTCTCTTTTT | 1.02 ± 0.036
TTCTGAGCTT | 1.07 ± 0.025
TTCTGCGGGG | 1.04 ± 0.046
TTCTGCTTAG | 2.04 ± 0.039
TTCTGGATGT | 0.956 ± 0.023
TTCTGGTTGT | 0.987 ± 0.046
TTCTGGTTTG | 0.975 ± 0.043
TTCTGGTTTT | 0.9727 ± 0.0026
TTCTGTGGGA | 1.002 ± 0.006
TTCTGTGGGT | 0.955 ± 0.057
TTCTGTTAAC | 1.01 ± 0.025
TTCTTAACAT | 1.054 ± 0.01
TTCTTACTTT | 1.48 ± 0.64
TTCTTATGAT | 0.9721 ± 0.0011
TTCTTCACGG | 1.04 ± 0.035
TTCTTCGGAT | 1.09 ± 0.11
TTCTTTCGCG | 0.9467 ± 0.0023
